In publication PMC11497264 (2024):
Bridge positions count the residues as written; N and C are the ends.

Assays:
[1] = molecular target: T1, human glucose-regulated protein GRP78 (human, UniProt P11021 19-654); assay: SPR
[2] = molecular target: T1, human glucose-regulated protein GRP78; assay: SPR; remark: listed apart in the source
[3] = molecular target: T1, human glucose-regulated protein GRP78; assay: SPR; two-state model, kd1
[4] = molecular target: T1, human glucose-regulated protein GRP78; assay: SPR; two-state reaction model

T1 sequence (P11021 19-654): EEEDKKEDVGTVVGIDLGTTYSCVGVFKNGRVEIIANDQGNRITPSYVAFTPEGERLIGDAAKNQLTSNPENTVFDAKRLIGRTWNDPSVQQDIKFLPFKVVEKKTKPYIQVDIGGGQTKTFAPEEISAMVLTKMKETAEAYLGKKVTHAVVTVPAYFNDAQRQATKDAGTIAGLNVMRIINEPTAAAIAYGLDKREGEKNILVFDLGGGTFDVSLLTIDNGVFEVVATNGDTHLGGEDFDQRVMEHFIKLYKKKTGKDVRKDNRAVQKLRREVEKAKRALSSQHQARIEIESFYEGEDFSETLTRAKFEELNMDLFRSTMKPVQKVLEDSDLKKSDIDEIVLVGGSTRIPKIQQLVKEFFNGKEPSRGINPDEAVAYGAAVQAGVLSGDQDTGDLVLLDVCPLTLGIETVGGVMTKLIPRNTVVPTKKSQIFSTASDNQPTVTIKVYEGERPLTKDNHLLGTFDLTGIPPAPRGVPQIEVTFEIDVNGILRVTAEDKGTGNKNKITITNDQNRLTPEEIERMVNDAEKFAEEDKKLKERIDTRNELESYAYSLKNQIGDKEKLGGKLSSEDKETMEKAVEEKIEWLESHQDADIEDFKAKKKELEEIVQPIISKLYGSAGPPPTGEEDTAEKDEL

B1: LCP W, loop-derived cyclic peptide based on spike residues 480-488 of the Wuhan strain (peptide)
peptide: H-CNGVEGFNC-NH2
modifications: disulfide 1-9
SMILES: CC(C)[C@@H]1NC(=O)CNC(=O)[C@H](CC(N)=O)NC(=O)[C@@H](N)CSSC[C@@H](C(N)=O)NC(=O)[C@H](CC(N)=O)NC(=O)[C@H](Cc2ccccc2)NC(=O)CNC(=O)[C@H](CCC(=O)O)NC1=O
Q: Which Kd [1] does the source give for B1 here?
A: Its Kd is 259 µM.

Q: What about the koff [2] of the same binder?
A: The koff was 0.43 s⁻¹.

B2: Pep42, 13-mer cyclopeptide (peptide)
peptide: H-CTVALPGGYVRVC-NH2
modifications: disulfide 1-13
SMILES: CC(C)C[C@@H]1NC(=O)[C@H](C)NC(=O)[C@H](C(C)C)NC(=O)[C@H]([C@@H](C)O)NC(=O)[C@@H](N)CSSC[C@@H](C(N)=O)NC(=O)[C@H](C(C)C)NC(=O)[C@H](CCCNC(=N)N)NC(=O)[C@H](C(C)C)NC(=O)[C@H](Cc2ccc(O)cc2)NC(=O)CNC(=O)CNC(=O)[C@@H]2CCCN2C1=O
Q: B2 was tested. Which koff [3] did it give?
A: Its koff is 0.678 s⁻¹.

Q: And the Kd [4]?
A: The Kd was 3430 µM.
